{
  "source": "patent US20040014707A1",
  "biological_target": "PA specific receptor on A549 human lung epithelial cells",
  "data": [
    {"substance": "EGFP-PA32 fusion protein", "values": [
      {"measurement": "fold signal over non-specific EGFP binding", "value": 4, "unit": "fold"}
    ]}
  ]
}
